Results reported in patent publication US20230140224A1 (APRILBIO, published 2023).

Target: T1, human serum albumin (human, UniProt P02768 25-609)
T1 construct: also called HSA; human albumin
Test: ELISA, albumin coated on plate, Fab in solution

T1 sequence (P02768 25-609 limits assumed): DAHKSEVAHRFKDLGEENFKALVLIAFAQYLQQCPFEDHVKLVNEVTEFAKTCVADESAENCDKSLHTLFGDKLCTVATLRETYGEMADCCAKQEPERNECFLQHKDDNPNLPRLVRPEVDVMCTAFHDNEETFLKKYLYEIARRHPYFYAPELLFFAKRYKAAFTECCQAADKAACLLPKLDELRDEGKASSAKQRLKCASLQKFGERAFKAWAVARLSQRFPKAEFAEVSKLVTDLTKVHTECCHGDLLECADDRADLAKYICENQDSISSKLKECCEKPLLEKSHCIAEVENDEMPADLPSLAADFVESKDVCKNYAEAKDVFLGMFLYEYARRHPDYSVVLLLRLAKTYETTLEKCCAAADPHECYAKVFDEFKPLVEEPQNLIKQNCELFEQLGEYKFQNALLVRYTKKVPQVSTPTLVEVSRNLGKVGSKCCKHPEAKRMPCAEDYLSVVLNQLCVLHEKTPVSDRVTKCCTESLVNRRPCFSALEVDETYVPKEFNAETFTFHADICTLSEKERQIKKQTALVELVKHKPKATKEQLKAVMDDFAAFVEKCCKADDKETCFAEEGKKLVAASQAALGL

binding result: binds
B1: FL335 Fab antibody fragment (Fab, V domains shown)
VH: QVQLVQSGGGPVKPGGSLRLSCAASGFMFRAYSMNWVRQAPGKGLEWVSSISSSGRYIHYADSVKGRFTISRDNAKNSLYLQMNSLRAEDTAVYYCARETVMAGKALDYWGQGTLVTVSS
VL: DIVLTQSPGTLSLSPGETATLSCRASQSVGSNLAWYQQKPGQAPRLLIYGASTGATGVPARFSGSRSGTDFTLTITSLQPEDFATYYCQQYYSFLAKTFGQGTQLEIKR
notes: also called FL355 Fab antibody fragment; feline chimeric antibody fragment
